# Biological target: the molecule itself
# Assay: crystal structure; apo form, 2.15 Å, space group P32, 6 monomers in the asymmetric unit; crystals from 0.2 M MgCl2, 0.1 M sodium citrate tribasic dihydrate pH 5, 10% w/v PEG, BME added; data at 100 K
protein,measurement,value
"Nmar_1308 protein, bifunctional crotonyl-CoA hydratase (CCAH) and 3-hydroxypropionyl-CoA dehydratase (3HPD) from Nitrosopumilus maritimus SCM1 (enzyme, Protein encoded by Nmar_1308 of Nitrosopumilus maritimus SCM1; codon-optimized gene construct from Genscript in pET28a (NdeI/BamHI); 229-237 residues modeled per chain in PDB 7EUM; Homohexamer (dimer of trimers) in the crystal; source: E. coli BL21(Rosetta-2), purified (Ni-NTA, thrombin cleavage, reverse Ni-NTA, Superdex 200); not shown: His6, N-terminal, cleaved) MSLVTTSTSDGICTVKINRPDKLNAMNTDVAKELIKTFEELNHNDDVKVIILTGEGEKAFSAGADIEYMSKISADESVEYAKTGQLVTATVELVKQPTIAAVNGFALGGGCELAMSCDIRIAADTAKLGQPEVTIGVPPGWGGTQRLMRIVGIAKAKELVYTGKMIKAEEAKEIGLVNHVVPLASLQEEALKMAQQIAGNSTMGVQMSKVAINKGRNADLDTGLGLEILAWRNCFTHPDRQERMTAFVNKSKK",stoichiometry N,6
